Source: PMC5962103, “SHOC1 is a ERCC4-(HhH)2-like protein, integral to the formation of crossover recombination intermediates during mammalian meiosis”

B1: single-stranded DNA (#1) (ssDNA)
DNA: ACGCTGCCGAATTCTACCAGTGCCTTGCTAGGACATCTTTGCCCACCTGCAGGTTCACCC
B2: D-loop (#1, #6, #7) (structured_DNA)
DNA 1: ACGCTGCCGAATTCTACCAGTGCCTTGCTAGGACATCTTTGCCCACCTGCAGGTTCACCC
DNA 2: GGGTGAACCTGCAGGTGGGCAGGAAGGCAAAATGCCGCAACTGGTAGAATTCGGCAGCGT
DNA 3: TTGCGGCATTTTGCCTTCCTCGGCCAGTGAATTCGAGCTC

Biological target: SHOC1 570-1111 (Homo sapiens, UniProt Q5VXU9 570-1111)
Assay: EMSA; 2 mM Mg2+; 20 mM Tris-HCl pH 7.4, 1 mM DTT, 2 mM MgCl2, 100 mM NaCl, 10 uM 32P-DNA (so in the source), 20 ul, 10 min at 37 C; 8% PAGE in 1x TAE
Settings: protein: recombinant, label: 5'-32P on #1

Sequence of SHOC1 570-1111 (Q5VXU9 570-1111): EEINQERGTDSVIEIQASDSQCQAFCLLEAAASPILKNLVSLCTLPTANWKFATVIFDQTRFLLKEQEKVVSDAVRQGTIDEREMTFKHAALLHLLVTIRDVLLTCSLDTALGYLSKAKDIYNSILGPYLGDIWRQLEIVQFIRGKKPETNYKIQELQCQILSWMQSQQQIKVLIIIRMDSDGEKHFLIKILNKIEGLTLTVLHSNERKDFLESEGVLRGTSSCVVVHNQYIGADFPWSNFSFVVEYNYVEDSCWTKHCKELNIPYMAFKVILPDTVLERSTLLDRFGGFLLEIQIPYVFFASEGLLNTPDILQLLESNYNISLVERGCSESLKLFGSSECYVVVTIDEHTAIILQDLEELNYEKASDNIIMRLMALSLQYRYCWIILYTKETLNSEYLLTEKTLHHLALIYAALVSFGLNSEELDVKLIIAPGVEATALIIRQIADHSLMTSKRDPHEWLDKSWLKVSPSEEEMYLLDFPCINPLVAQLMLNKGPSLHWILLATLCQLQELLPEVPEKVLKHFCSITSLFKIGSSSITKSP

Row | Binder | binding result (single strand, 60 nt) | binding result (D-loop 1:2 2:3, invading strand 3 pairs by its 5' 20 nt, 3' 20 nt tail)
1 | B1 | binds | 
2 | B2 |  | binds
